From US9938505B2, “Polypeptide composition and culture method for pluripotent stem cell using same” (FUJIFILM Corporation, priority 2013, dated 2018)

B1: RCP-6: recombinant polypeptide SEQ ID NO: 19; human vitronectin positions 1-55, 270-459, C274S, C411S, C453S (protein)
chain: MDQESCKGRCTEGFNVDKKCQCDELCSYYQSCCTDYTAECKPQVTRGDVFTMPEDESQEESEGSSLSAVFEHFAMMQRDSWEDIFELLFWGRTSAGTRQPQFISRDWHGVPGQVDAAMAGRIYISGMAPRPSLAKKQRFRHRNRKGYRSQRGHSRGRNQNSRRPSRATWLSLFSSEESNLGANNYDDYRMDWLVPATSEPIQSVFFFSGDKYYRVNLRTRRVDTVDPPYPRSIAQYWLGSPAPGHL
modifications: Synthetic peptide RCP-6
notes: human vitronectin positions 1-55, 270-459, C274S, C411S, C453S
B2: RCP-8: recombinant polypeptide SEQ ID NO: 21; human vitronectin positions 1-55, 270-373, 374-379, C274S (protein)
chain: MDQESCKGRCTEGFNVDKKCQCDELCSYYQSCCTDYTAECKPQVTRGDVFTMPEDESQEESEGSSLSAVFEHFAMMQRDSWEDIFELLFWGRTSAGTRQPQFISRDWHGVPGQVDAAMAGRIYISGMAPRPSLAKKQRFRHRNRKGYRSQRGHSRGRNQNSRRPSR
modifications: Synthetic peptide RCP-8
notes: human vitronectin positions 1-55, 270-373, 374-379, C274S
B3: RCP-7: recombinant polypeptide SEQ ID NO: 20; human vitronectin positions 1-55, 270-373, C274S (protein)
chain: MDQESCKGRCTEGFNVDKKCQCDELCSYYQSCCTDYTAECKPQVTRGDVFTMPEDESQEESEGSSLSAVFEHFAMMQRDSWEDIFELLFWGRTSAGTRQPQFISRDWHGVPGQVDAAMAGRIYISGMAPRPSLAKKQRFRHRNRKGYRSQRGHSRGRNQN
modifications: Synthetic peptide RCP-7
notes: human vitronectin positions 1-55, 270-373, C274S
B4: RCP-17: recombinant polypeptide SEQ ID NO: 39; human vitronectin positions 1-55, 270-277, 295-341, 342-373, C274S (protein)
chain: MDQESCKGRCTEGFNVDKKCQCDELCSYYQSCCTDYTAECKPQVTRGDVFTMPEDESQEESEGSEDIFELLFWGRTSAGTRQPQFISRDWHGVPGQVDAAMAGRIYISGMAPRPSLAKKQRFRHRNRKGYRSQRGHSRGRNQN
modifications: Synthetic peptide RCP-17
notes: human vitronectin positions 1-55, 270-277, 295-341, 342-373, C274S
B5: Natural vitronectin: human vitronectin extracted from human blood plasma, BD Biosciences (protein, UniProt P04004 20-478, looked up)
Vitronectin: DQESCKGRCTEGFNVDKKCQCDELCSYYQSCCTDYTAECKPQVTRGDVFTMPEDEYTVYDDGEEKNNATVHEQVGGPSLTSDLQAQSKGNPEQTPVLKPEEEAPAPEVGASKPEGIDSRPETLHPGRPQPPAEEELCSGKPFDAFTDLKNGSLFAFRGQYCYELDEKAVRPGYPKLIRDVWGIEGPIDAAFTRINCQGKTYLFKGSQYWRFEDGVLDPDYPRNISDGFDGIPDNVDAALALPAHSYSGRERVYFFKGKQYWEYQFQHQPSQEECEGSSLSAVFEHFAMMQRDSWEDIFELLFWGRTSAGTRQPQFISRDWHGVPGQVDAAMAGRIYISGMAPRPSLAKKQRFRHRNRKGYRSQRGHSRGRNQNSRRPSRATWLSLFSSEESNLGANNYDDYRMDWLVPATCEPIQSVFFFSGDKYYRVNLRTRRVDTVDPPYPRSIAQYWLGCPAPGHL

Tests used:
[1] = Aggregation after dialysis (removal of urea); format: physicochemical; conditions: after stepwise dialysis against PBS, 1.5 M NaCl, 0.5 M L-arginine, 1 mM EDTA, pH 7.4
Experimental: For RCP-1 to RCP-10 and RCP-17, each of the purified polypeptide solutions was dialyzed using SLIDE-A-LIZER (trade name, 3.5 K MWCO.). Basically, by using a dialysis buffer (PBS, 1.5 M NaCl, 0.5 M L-arginine, 1 mM EDTA, pH 7.4) as an outer dialysate, urea was removed by stepwise dialysis. The concentration of the end-product of dialysis was calculated from the absorbence at 280 nm by using NANODROP (trade name, Thermo Fisher Scientific Inc.).
Furthermore, the indices of hydrophobicity determined for each of the amino acids were summed up, the obtained value was divided by the number of the amino acids, and the outcome was determined as the GRAVY value (see Kyte J., Doolittle R. F. (1982), J. Mol. Biol, 157: 105-132). The GRAVY value is an index of the hydrophilicity and hydrophobicity of a polypeptide calculated from the degree of hydrophobicity of the amino acids contained in each polypeptide. The greater the GRAVY value, the more the polypeptide is hydrophobic, and the smaller the GRAVY value, the more the polypeptide is hydrophilic. The results are shown in Table 4. • Whether or not aggregation was occurred was evaluated based on the scale of G, A, and B as shown below. The results are summarized in Table 4. • G: The formation of an aggregate was not observed. • A: The formation of particles having a particle size of about 100 nm was observed. • B: The formation of an aggregation of particles having a particle size of equal to or greater than 1 mm was visually observed.

iPS cells = experiment: Evaluation of maintenance of undifferentiated state (colony form, NANOG staining); format: cell-based, human; conditions: FIGS. 4A to 4E; after culture for 1 month
Experimental: iPS cells collected in the same manner as in <Cell adhesiveness evaluation 1> were suspended in TeSR2. The iPS cells were seeded into 6-well plate (Tissue culture-treated, Falcon), onto which each of the samples 1, 2, 5, 6, and 7 used in <Cell adhesiveness evaluation 1> was adsorbed in the same manner as in <Cell adhesiveness evaluation 1>, and cultured in a CO2 incubator at 37° C. Except for the day after the seeding, the medium was replaced every day. In the same method as described above, the cells were subcultured every six days. FIGS. 3A to 3E show forms of the iPS cells cultured on each of the samples.
After being cultured for 1 month under the conditions described above, the cells were immobilized using 4% paraformaldehyde and treated with 1% Triton-X/PBS so as to enhance the membrane permeability. After the cells were subjected to a blocking treatment using an IMAGE IT SIGNAL ENHANCER (trade name, Invitrogen), an anti-human NANOG antibody (AF 1997, R&D Systems, Inc.), an ALEXA FLUOR 555 binding rabbit anti-goat IgG antibody (Invitrogen), and DAPI (Dojindo Molecular Technologies, Inc.) were added thereto for labeling, and the cells were imaged using a fluorescence microscope. FIGS. 4A to 4E show the fluorescence microscopic images.
FIGS. 3A and 4A show the iPS cells cultured on RCP-1; FIGS. 3B and 4B show the iPS cells cultured on RCP-11; FIGS. 3C and 4C show the iPS cells cultured on natural human vitronectin; FIGS. 3D and 4D show the iPS cells cultured on rLaminin-5; and FIGS. 3E and 4E show the iPS cells cultured on rLaminin-511. The scale bar in the images indicates […]. In FIGS. 3A to 3E, the images on the left side are full images of the colony, and the images on the right side are magnified images. In FIGS. 4A to 4E, the images on the left side are images of the cells stained with DAPI, and the images on the right side are images of the cells stained with an anti-NANOG antibody. The scale bar in FIGS. 3A to 4E indicates 200 μm.

| Molecule | Aggregation [1] | NANOG expression / maintenance of undifferentiated state (iPS cells) |
| --- | --- | --- |
| B1 | A (The formation of particles having a particle size of about 100 nm was observed.) |  |
| B2 | A (The formation of particles having a particle size of about 100 nm was observed.) |  |
| B3 | A (The formation of particles having a particle size of about 100 nm was observed.) |  |
| B4 | A (The formation of particles having a particle size of about 100 nm was observed.) |  |
| B5 |  | strongly expressed NANOG in the entirety of the colony |
